Laboratory results reported in patent US20250051759A1, “METHODS AND MOLECULES FOR RNA INTERFERENCE (RNAi)” (BOEHRINGER INGELHEIM INTERNATIONAL GMBH, priority 2021, published 2025).
Entries after “also recorded” stand apart in the source; their conditions may differ.

B1: ARTi-shRNA 6634: ARTi-shRNAmir, antisense RNA UUCGAUUAAAACAUCAUCCGGA (SEQ ID NO: 10), 97 mer SEQ ID NO: 22 (nucleic acid)
chain: UGCUGUUGACAGUGAGCGCCCGGAUGAUGUUUUAAUCGAAUAGUGAAGCCACAGAUGUAUUCGAUUAAAACAUCAUCCGGAUGCCUACUGCCUCGGA
B2: ARTi-shRNA 6786: ARTi-shRNAmir, antisense RNA UUCGUAUACAAUAUCAUCCGGA (SEQ ID NO: 12), 97 mer SEQ ID NO: 24 (nucleic acid)
chain: UGCUGUUGACAGUGAGCGCCCGGAUGAUAUUGUAUACGAAUAGUGAAGCCACAGAUGUAUUCGUAUACAAUAUCAUCCGGAUGCCUACUGCCUCGGA
B3: ARTi-shRNA 6570: ARTi-shRNAmir, antisense RNA UUCGAUAACAAUAUCAUCCGGA (SEQ ID NO: 6), 97 mer SEQ ID NO: 18 (nucleic acid)
chain: UGCUGUUGACAGUGAGCGCCCGGAUGAUAUUGUUAUCGAAUAGUGAAGCCACAGAUGUAUUCGAUAACAAUAUCAUCCGGAUGCCUACUGCCUCGGA

What was measured:
RN2 (AML) cells = assay: Competitive proliferation assay; format: cell-based, mouse; details: monitored for 8 days, no endogenous target gene
Protocol: (§1) The 3 best-performing ARTi-shRNAmirs were analyzed for their effects on proliferation of diverse mouse cell lines originating from different tissues. This experimental step monitors potential off-target effects. Should an off-target, relevant to the proliferative capacity be knocked down, a decrease in cellular fitness would be expected. NIH 3T3 (embryonic fibroblasts), EPP2 (PDAC) and RN2 (AML) cells were transduced with ARTi-shRNAs or validated control shRNAs. Subsequently, the percentage of shRNA expressing cells was monitored via flow cytometry in regular intervals for 8 days in competitive co-culture assays. For competitive proliferation assays, NIH 3T3, EPP2 and RN2 cells were retrovirally transduced with shRNAmir expression plasmids and initial infection levels were determined by flow cytometry based on mCherry expression 4 days post transduction (Day 0). The percentage of infected cells was then further monitored in regular intervals to determine the effects of shRNA expression in the absence of an endogenous target gene for the ARTi-shRNAmirs.

[1] = tested on: NIH 3T3, EPP2 and MR125 cells; assay: Transcriptional profiling (QuantSeq) for off-target effects; format: cell-based, mouse; details: cells expressing ARTi-shRNAs vs empty vector control, no target gene expression
Protocol: To directly quantify off-target effects of the top 3 ARTi-shRNAs, transcriptome profiling in NIH 3T3, EPP2 and MR125 cells expressing ARTi-shRNAs or empty vector control was performed. For the unbiased identification of ARTi shRNA off-targets NIH-3T3, EPP2 and MR125 cells were retrovirally transduced with shRNAmir expression plasmids and selected for shRNA expression using G418 Sulfate (0.5 mg/mL for EPP2 and NIH 3T3 and 1 mg/mL for MR125, respectively; Gibco). 1.5×106 (NIH 3T3 and EPP2) or 2×106 (MR125) cells were pelleted, washed with PBS, lysed, treated with DNAse I and whole RNA was extracted using magnetic beads (in-house) and a KingFisher Duo Prime Purification System (ThermoFisher). Next generation sequencing libraries were prepared using QuantSeq 3′ mRNA-Seq Library Prep Kit (Lexogen) according to manufacturer's instructions and sequenced on a HiSeq2500 platform (Illumina).
RefSeq genes and 3′-UTR annotations were prepared from the UCSC table browser (https://genome.ucsc.edu/cgi-bin/hgTables, May 2016). […] Reads were aligned to the GRCm38 primary assembly using Slamdunk v0.2.410 in QuantSeq mode (slamdunk map-5 12-n 100-q) and alignments were filtered to recover multimappers with the acquired 3′-UTR set (slamdunk filter-b). Reads were quantified against said 3′-UTR annotation using featureCounts v1.5.0-p211 using stranded counting and counting multimapping reads (−M ˜s 1). […]

[2] = tested on: NIH 3T3, EPP2 and RN2 cells; assay: Competitive proliferation assays, result stated for all cell lines together; format: cell-based, mouse; details: all tested cell lines, competitive co-culture
Protocol: as §1

EGFR^del19::dsRed::ARTi = assay: Western blot of doxycycline induced knockdown in PC-9 cells; format: cell-based; details: endogenous EGFR knocked out, doxycycline induced expression
Protocol: The EGFR^del19::Linker::dsRed::ARTi construct was transduced into EGFR^del19dependent PC-9 cells. The endogenous EGFR gene was then knocked out using CRISPR/Cas9, making the PC-9 cells dependent on EGFR^del19::dsRed::ARTi. PC-9 cell pellets for different genetic backgrounds and treatments were lysed in triton lysis buffer, sonicated, and stored at −80° C. until for protein detection, the pellets were thawed on ice, followed by 15 minutes centrifugation at 13,000 rpm at 4° C. Then, cell lysates were loaded onto a 12% pre-casted SDS-polyacrylamide gel electrophoresis and proteins were transferred onto a nitrocellulose membrane and PDVF-membrane, respectively. Both membranes were probed with the respective primary antibodies overnight. The next day, the secondary antibodies conjugated with fluorescent dye were added and the proteins were detected by the Odyssey detection system.

Molecule | growth compared to non-transduced cells in competitive co-culture (RN2 (AML) cells) | growth compared to non-transduced cells in competitive co-culture (RN2 (AML) cells; listed as ARTi.6634) | transcriptional effects / responses (principal component analysis) [1] | percentage of shRNA expressing cells over time / toxicity [2] | EGFR^del19::dsRed::ARTi protein levels (EGFR^del19::dsRed::ARTi)
B1 | growth disadvantage; also recorded: adverse effect | considerable growth disadvantage | – | – | –
B2 | – | – | only mild transcriptional responses | no considerable toxicity | –
B3 | – | – | only mild transcriptional responses | no considerable toxicity | reduction
